The target in the test is MSL2-FLAG (Drosophila) (UniProt P50534). Description: co-IP.
Sequence of UniProt P50534 (P50534 whole entry): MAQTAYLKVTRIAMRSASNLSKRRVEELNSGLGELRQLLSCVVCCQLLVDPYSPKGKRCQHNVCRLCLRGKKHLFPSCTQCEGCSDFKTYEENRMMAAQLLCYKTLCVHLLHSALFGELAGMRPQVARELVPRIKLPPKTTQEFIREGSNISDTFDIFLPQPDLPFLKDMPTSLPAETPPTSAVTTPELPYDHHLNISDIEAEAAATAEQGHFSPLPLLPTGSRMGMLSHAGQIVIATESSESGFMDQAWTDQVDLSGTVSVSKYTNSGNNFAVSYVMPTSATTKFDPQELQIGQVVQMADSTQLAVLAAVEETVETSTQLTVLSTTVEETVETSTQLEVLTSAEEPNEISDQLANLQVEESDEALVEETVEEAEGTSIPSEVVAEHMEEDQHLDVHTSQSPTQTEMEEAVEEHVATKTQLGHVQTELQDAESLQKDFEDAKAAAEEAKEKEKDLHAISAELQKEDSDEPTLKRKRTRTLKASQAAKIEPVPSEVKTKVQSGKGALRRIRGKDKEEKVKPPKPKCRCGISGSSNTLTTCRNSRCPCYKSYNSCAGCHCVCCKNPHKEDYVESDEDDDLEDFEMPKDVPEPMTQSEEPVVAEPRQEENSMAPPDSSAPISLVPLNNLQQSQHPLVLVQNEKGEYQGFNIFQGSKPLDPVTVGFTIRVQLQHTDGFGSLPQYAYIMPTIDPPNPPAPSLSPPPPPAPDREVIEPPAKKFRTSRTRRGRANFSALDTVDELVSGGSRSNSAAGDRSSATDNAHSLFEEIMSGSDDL

For the substance “CLAMP-ΔZF1-FLAG (from UniProt Q9V9N4 1-561) (natural protein)”, the percent co-immunoprecipitated (bound fraction normalised to input) is below 1%.

These data come from PMC10516644.
